Results reported in patent publication US20210292396A1.

Assays:
Test in all cases: cell-based or functional assay
[1] = target: HIV Env of isolate ZM106.9 (HIV)
[2] = target: HIV Env of isolate A03349M1.vrc4a (HIV)
[3] = target: HIV Env of isolate 3337.v2.c6 (HIV)
[4] = target: Env of HIV isolate PVO.04 (clade B) (HIV)
[5] = target: Env of HIV isolate 3637.v5.c3 (clade C) (HIV)
[6] = target: Env of HIV isolate 3988.25 (clade B) (HIV)
[7] = target: HIV Env of isolate 3637.v5.c3 (HIV)
[8] = target: Env of HIV isolate SS1196.01 (clade B) (HIV)
[9] = target: Env of HIV isolate MI369.A5 (clade A) (HIV)
[10] = target: Env of HIV isolate RW020.2 (clade A) (HIV)
[11] = target: Env of HIV isolate NKU3006.ec1 (clade D) (HIV)
[12] = target: Env of HIV isolate CNE59 (clade AE) (HIV)
[13] = target: Env of HIV isolate CH117.4 (clade BC) (HIV)
[14] = target: HIV Env of isolate X2088.c9 (HIV)
[15] = target: Env of HIV isolate 3016.v5.c45 (clade D) (HIV)
[16] = target: Env of HIV isolate 0260.v5.c36 (clade A) (HIV)
[17] = target: HIV Env of isolate 6631.v3.c10 (HIV)
[18] = target: Env of HIV isolate C1080.c3 (clade AE) (HIV)
[19] = target: Env of HIV isolate QH0515.01 (clade B) (HIV)
[20] = target: Env of HIV isolate 6322.v4.c1 (clade C) (HIV)
[21] = target: HIV Env of isolate 16055-2.3 (HIV)
[22] = target: Env of HIV isolate ZM53.12 (clade C) (HIV)
[23] = target: HIV Env of isolate DU156.12 (HIV)
[24] = target: Env of HIV isolate T33-7 (clade AG) (HIV)
[25] = target: Env of HIV isolate MB201.A1 (clade A) (HIV)
[26] = target: HIV Env of isolate 25711-2.4 (HIV)
[27] = target: Env of HIV isolate Q168.a2 (clade AD) (HIV)
[28] = target: Env of HIV isolate X1632.S2.B10 (clade G) (HIV)
[29] = target: Env of HIV isolate KNH1209.18 (clade A) (HIV)
[30] = target: Env of HIV isolate 3817.v2.c59 (clade CD) (HIV)
[31] = target: HIV Env of isolate TV1.29 (HIV)
[32] = target: HIV Env of isolate X1193.c1 (HIV)
[33] = target: Env of HIV isolate 25710-2.43 (clade C) (HIV)
[34] = target: Env of HIV isolate 6095.v1.c10 (clade ACD) (HIV)
[35] = target: HIV Env of isolate ZM233.6 (HIV)
[36] = target: HIV Env of isolate ZM214.15 (HIV)
[37] = target: HIV Env of isolate CNE7 (HIV)
[38] = target: Env of HIV isolate Q259.17 (clade A) (HIV)
[39] = target: Env of HIV isolate 89.6.DG (clade B) (HIV)
[40] = target: HIV Env of isolate CAP244.D3 (HIV)
[41] = target: HIV Env of isolate X1254.c3 (HIV)
[42] = target: Env of HIV isolate Ce1176.A3 (clade C) (HIV)
[43] = target: Env of HIV isolate BaL.26 (clade B) (HIV)
[44] = target: Env of HIV isolate 271-11 (clade AG) (HIV)
[45] = target: Env of HIV isolate CNE30 (clade C in Table 7) (HIV)
[46] = target: Env of HIV isolate MB539.2B7 (clade A) (HIV)
[47] = target: HIV Env of isolate CNE21 (HIV)
[48] = target: HIV Env of isolate 0077.v1.c16 (HIV)
[49] = target: HIV Env of isolate MW965.26 (HIV)
[50] = target: HIV Env of isolate 26191-2.48 (HIV)

B1: ePGT121.15 (ePGT121.15.H6 VH and ePGT121.15.L1 VL) (antibody, V domains shown)
VH: QMQLQESGPGLVKPGETLSLTCSVSGASISSSYWSWLRETPGKGLEWIGYTHHSGDTNYAPSLKSRVHLGLHPSKNQVSLSLTSVTAADTAVYYCARTLHGRRIYGVVAFNEFFTYFYWEVWGKGTQVTVSS
VL: SDISVAPGETVRISCGGESIGSRAVQWYQHRAGQAPKLIIYNNQDRPPGIPERFSGSPDIDFGTTATLTITNVEAGDEATYYCHIWDSRRPTNWVFGGGTTLTVL
In the case of B1, the IC80, pseudovirus neutralization [1] is reported as 0.006 µg/mL, the IC80, pseudovirus neutralization [2] is reported as 0.019 µg/mL and the IC80, pseudovirus neutralization [3] is reported as 2.63 µg/mL. For the same binder, the IC50, pseudovirus neutralization [4] was 0.006 µg/mL, the IC50, pseudovirus neutralization [5] was over 50 µg/mL and the IC50, pseudovirus neutralization [6] was 0.004 µg/mL. The IC80, pseudovirus neutralization [7] was over 50 µg/mL, the IC50, pseudovirus neutralization [8] was 0.003 µg/mL and the IC50, pseudovirus neutralization [9] was 0.004 µg/mL. It also gave an IC50, pseudovirus neutralization [10] of 0.003 µg/mL, an IC50, pseudovirus neutralization [11] of over 50 µg/mL and an IC50, pseudovirus neutralization [12] of over 50 µg/mL. For the same binder, the IC50, pseudovirus neutralization [13] was over 50 µg/mL, the IC80, pseudovirus neutralization [14] was 0.01 µg/mL and the IC50, pseudovirus neutralization [15] was over 50 µg/mL. It also gave an IC50, pseudovirus neutralization [16] of 0.004 µg/mL, an IC80, pseudovirus neutralization [17] of 0.065 µg/mL and an IC50, pseudovirus neutralization [18] of over 50 µg/mL. It also gave an IC50, pseudovirus neutralization [19] of 0.014 µg/mL, an IC50, pseudovirus neutralization [20] of over 50 µg/mL and an IC80, pseudovirus neutralization [21] of 0.211 µg/mL. The IC50, pseudovirus neutralization [22] was 0.008 µg/mL, the IC80, pseudovirus neutralization [23] was 0.005 µg/mL and the IC50, pseudovirus neutralization [24] was over 50 µg/mL. For the same binder, the IC50, pseudovirus neutralization [25] was 0.004 µg/mL, the IC80, pseudovirus neutralization [26] was 0.008 µg/mL and the IC50, pseudovirus neutralization [27] was 5.07 µg/mL. For the same binder, the IC50, pseudovirus neutralization [28] was over 50 µg/mL, the IC50, pseudovirus neutralization [29] was 0.003 µg/mL and the IC50, pseudovirus neutralization [30] was 0.984 µg/mL. It also gave an IC80, pseudovirus neutralization [31] of 0.01 µg/mL, an IC80, pseudovirus neutralization [32] of 0.007 µg/mL and an IC50, pseudovirus neutralization [33] of 0.006 µg/mL. For the same binder, the IC50, pseudovirus neutralization [34] was 0.019 µg/mL, the IC80, pseudovirus neutralization [35] was 0.073 µg/mL and the IC80, pseudovirus neutralization [36] was 0.126 µg/mL. For the same binder, the IC80, pseudovirus neutralization [37] was 0.013 µg/mL, the IC50, pseudovirus neutralization [38] was over 50 µg/mL and the IC50, pseudovirus neutralization [39] was 0.002 µg/mL. It also gave an IC80, pseudovirus neutralization [40] of over 50 µg/mL, an IC80, pseudovirus neutralization [41] of 0.009 µg/mL and an IC50, pseudovirus neutralization [42] of 0.003 µg/mL. For the same binder, the IC50, pseudovirus neutralization [43] was 0.003 µg/mL, the IC50, pseudovirus neutralization [44] was over 50 µg/mL and the IC50, pseudovirus neutralization [45] was 0.008 µg/mL. The IC50, pseudovirus neutralization [46] was over 50 µg/mL, the IC80, pseudovirus neutralization [47] was 0.004 µg/mL and the IC80, pseudovirus neutralization [48] was over 50 µg/mL. The IC80, pseudovirus neutralization [49] was 0.009 µg/mL and the IC80, pseudovirus neutralization [50] was 0.015 µg/mL.
